# Laboratory results published in patent publication US20230002480A1.
# Experiments:
# Assay in all cases: cell-based or functional assay
# [1] = target: HIV-1 Env of pseudovirus X1193_c1 (HIV-1)
# [2] = target: HIV-1 Env of pseudovirus Q769.d22 (HIV-1)
# [3] = target: HIV-1 Env of pseudovirus Ce1172_H1 (HIV-1)
# [4] = target: HIV-1 Env of pseudovirus 3817.v2.c59 (HIV-1)
# [5] = target: HIV-1 Env of pseudovirus WITO4160.33 (HIV-1)
# [6] = target: HIV-1 Env of pseudovirus 6545.v4.c1 (HIV-1)
# [7] = target: HIV-1 Env of pseudovirus THRO4156.18 (HIV-1)
# [8] = target: HIV-1 Env of pseudovirus Du156.12 (HIV-1)
# [9] = target: HIV-1 Env of pseudovirus ZM214M.PL15 (HIV-1)
# [10] = target: HIV-1 Env of pseudovirus Du422.1 (HIV-1)
# [11] = target: HIV-1 Env of pseudovirus T278-50 (HIV-1)
# [12] = target: HIV-1 Env of pseudovirus T251-18 (HIV-1)
# [13] = target: HIV-1 Env of pseudovirus SC422661.8 (HIV-1)
# [14] = target: HIV-1 Env of pseudovirus 1006_11_C3_1601 (HIV-1)
# [15] = target: HIV-1 Env of pseudovirus 620345.c01 (HIV-1)
# [16] = target: HIV-1 Env of pseudovirus 231965.c01 (HIV-1)
# [17] = target: HIV-1 Env of pseudovirus 1056_10_TA11_1826 (HIV-1)
# [18] = target: HIV-1 Env of pseudovirus R3265.c06 (HIV-1)
# [19] = target: HIV-1 Env of pseudovirus R2184.c04 (HIV-1)
# [20] = target: HIV-1 Env of pseudovirus C2101.c01 (HIV-1)
# [21] = target: HIV-1 Env of pseudovirus CNE5 (HIV-1)
# [22] = target: HIV-1 Env of pseudovirus X2131_C1_B5 (HIV-1)
# [23] = target: HIV-1 Env of pseudovirus X2088_c9 (HIV-1)
# [24] = target: HIV-1 Env of pseudovirus PVO.4 (HIV-1)
# [25] = target: HIV-1 Env of pseudovirus Ce703010054_2A2 (HIV-1)
# [26] = target: HIV-1 Env of pseudovirus Ce0393_C3 (HIV-1)
# [27] = target: HIV-1 Env of pseudovirus SC05_8C11_2344 (HIV-1)
# [28] = target: HIV-1 Env of pseudovirus 246F C1G (HIV-1)
# [29] = target: HIV-1 Env of pseudovirus QH0692.42 (HIV-1)
# [30] = target: HIV-1 Env of pseudovirus ZM233M.PB6 (HIV-1)
# [31] = target: HIV-1 Env of pseudovirus Ce704809221_1B3 (HIV-1)
# [32] = target: HIV-1 Env of pseudovirus 6811.v7.c18 (HIV-1)
# [33] = target: HIV-1 Env of pseudovirus ZM249M.PL1 (HIV-1)
# [34] = target: HIV-1 Env of pseudovirus A07412M1.vrc12 (HIV-1)
# [35] = target: HIV-1 Env of pseudovirus 1394C9G1(Rev-) (HIV-1)
# [36] = target: HIV-1 Env of pseudovirus 191084 B7-19 (HIV-1)
# [37] = target: HIV-1 Env of pseudovirus BJOX010000.06.2 (HIV-1)
substance,measurement,setting,value
VRC01 (antibody),"IC50, titer in TZM.bl cells",[1],0.11 µg/mL
same,"IC80, titer in TZM.bl cells",[1],0.32 µg/mL
same,"IC50, titer in TZM.bl cells",[2],0.08 µg/mL
same,"IC80, titer in TZM.bl cells",[2],0.29 µg/mL
same,"IC50, titer in TZM.bl cells",[3],> 10 µg/mL
same,"IC80, titer in TZM.bl cells",[3],> 10 µg/mL
same,"IC50, titer in TZM.bl cells",[4],> 50 µg/mL
same,"IC80, titer in TZM.bl cells",[4],> 50 µg/mL
same,"IC50, titer in TZM.bl cells",[5],0.15 µg/mL
same,"IC80, titer in TZM.bl cells",[5],0.41 µg/mL
same,"IC50, titer in TZM.bl cells",[6],> 50 µg/mL
same,"IC80, titer in TZM.bl cells",[6],> 50 µg/mL
same,"IC80, titer in TZM.bl cells",[7],23 µg/mL
same,"IC50, titer in TZM.bl cells",[8],0.09 µg/mL
same,"IC80, titer in TZM.bl cells",[8],0.193 µg/mL
same,"IC50, titer in TZM.bl cells",[9],0.44 µg/mL
same,"IC80, titer in TZM.bl cells",[9],2.6 µg/mL
same,"IC50, titer in TZM.bl cells",[10],> 50 µg/mL
same,"IC80, titer in TZM.bl cells",[10],> 50 µg/mL
same,"IC50, titer in TZM.bl cells",[11],> 50 µg/mL
same,"IC80, titer in TZM.bl cells",[11],> 50 µg/mL
same,"IC80, titer in TZM.bl cells",[12],11.2 µg/mL
same,"IC50, titer in TZM.bl cells",[13],0.08 µg/mL
same,"IC80, titer in TZM.bl cells",[13],0.265 µg/mL
same,"IC50, titer in TZM.bl cells",[14],0.15 µg/mL
same,"IC80, titer in TZM.bl cells",[14],0.39 µg/mL
same,"IC50, titer in TZM.bl cells",[15],> 50 µg/mL
same,"IC80, titer in TZM.bl cells",[15],> 50 µg/mL
same,"IC50, titer in TZM.bl cells",[16],0.34 µg/mL
same,"IC80, titer in TZM.bl cells",[16],1.2 µg/mL
same,"IC50, titer in TZM.bl cells",[17],0.92 µg/mL
same,"IC80, titer in TZM.bl cells",[17],3.28 µg/mL
same,"IC50, titer in TZM.bl cells",[18],0.45 µg/mL
same,"IC80, titer in TZM.bl cells",[18],1.88 µg/mL
same,"IC50, titer in TZM.bl cells",[19],0.08 µg/mL
same,"IC80, titer in TZM.bl cells",[19],0.32 µg/mL
same,"IC50, titer in TZM.bl cells",[20],0.36 µg/mL
same,"IC80, titer in TZM.bl cells",[20],1.17 µg/mL
same,"IC50, titer in TZM.bl cells",[21],0.37 µg/mL
same,"IC80, titer in TZM.bl cells",[21],1.1 µg/mL
same,"IC50, titer in TZM.bl cells",[22],0.51 µg/mL
same,"IC80, titer in TZM.bl cells",[22],1.54 µg/mL
same,"IC50, titer in TZM.bl cells",[23],> 50 µg/mL
same,"IC80, titer in TZM.bl cells",[23],> 50 µg/mL
same,"IC50, titer in TZM.bl cells",[24],0.22 µg/mL
same,"IC80, titer in TZM.bl cells",[24],1.2 µg/mL
same,"IC50, titer in TZM.bl cells",[25],0.53 µg/mL
same,"IC80, titer in TZM.bl cells",[25],1.84 µg/mL
same,"IC50, titer in TZM.bl cells",[26],0.62 µg/mL
same,"IC80, titer in TZM.bl cells",[26],2.37 µg/mL
same,"IC50, titer in TZM.bl cells",[27],0.64 µg/mL
same,"IC80, titer in TZM.bl cells",[27],1.91 µg/mL
same,"IC50, titer in TZM.bl cells",[28],> 10 µg/mL
same,"IC80, titer in TZM.bl cells",[28],> 10 µg/mL
same,"IC50, titer in TZM.bl cells",[29],1.5 µg/mL
same,"IC80, titer in TZM.bl cells",[29],4.8 µg/mL
same,"IC50, titer in TZM.bl cells",[30],2 µg/mL
same,"IC80, titer in TZM.bl cells",[30],9.3 µg/mL
same,"IC50, titer in TZM.bl cells",[31],0.55 µg/mL
same,"IC80, titer in TZM.bl cells",[31],2.05 µg/mL
same,"IC50, titer in TZM.bl cells",[32],0.09 µg/mL
same,"IC80, titer in TZM.bl cells",[32],0.26 µg/mL
same,"IC50, titer in TZM.bl cells",[33],0.05 µg/mL
same,"IC80, titer in TZM.bl cells",[33],0.23 µg/mL
PGT145 (antibody),"IC50, titer in TZM.bl cells",[1],0.013 µg/mL
same,"IC80, titer in TZM.bl cells",[1],0.091 µg/mL
same,IC50,[2],0.26 µg/mL
same,IC80,[2],25.5 µg/mL
same,IC50,[3],0.26 µg/mL
same,IC80,[3],2.06 µg/mL
same,"IC50, titer in TZM.bl cells",[4],> 50 µg/mL
same,"IC80, titer in TZM.bl cells",[4],> 50 µg/mL
same,IC50,[5],< 0.001 µg/mL
same,IC80,[5],0.001 µg/mL
same,"IC50, titer in TZM.bl cells",[6],0.114 µg/mL
same,"IC80, titer in TZM.bl cells",[6],3.1 µg/mL
same,"IC50, titer in TZM.bl cells",[34],0.002 µg/mL
same,"IC80, titer in TZM.bl cells",[34],0.023 µg/mL
same,IC50,[35],0.001 µg/mL
same,IC80,[35],0.005 µg/mL
same,IC50,[7],0.01 µg/mL
same,IC80,[7],0.029 µg/mL
same,IC50,[8],0.001 µg/mL
same,IC80,[8],0.018 µg/mL
same,IC50,[9],> 50 µg/mL
same,IC80,[9],> 50 µg/mL
same,IC50,[10],22.6 µg/mL
same,IC80,[10],> 50 µg/mL
same,"IC50, titer in TZM.bl cells",[11],10.3 µg/mL
same,"IC80, titer in TZM.bl cells",[11],> 50 µg/mL
same,"IC50, titer in TZM.bl cells",[12],0.351 µg/mL
same,"IC80, titer in TZM.bl cells",[12],1.39 µg/mL
same,IC50,[13],0.024 µg/mL
same,IC80,[13],0.082 µg/mL
same,IC50,[14],> 50 µg/mL
same,IC80,[14],> 50 µg/mL
same,"IC50, titer in TZM.bl cells",[15],0.241 µg/mL
same,"IC80, titer in TZM.bl cells",[15],19.7 µg/mL
same,"IC50, titer in TZM.bl cells",[16],0.403 µg/mL
same,"IC80, titer in TZM.bl cells",[16],15 µg/mL
same,IC50,[17],0.23 µg/mL
same,IC80,[17],0.938 µg/mL
same,"IC50, titer in TZM.bl cells",[18],0.037 µg/mL
same,"IC80, titer in TZM.bl cells",[18],0.227 µg/mL
same,"IC50, titer in TZM.bl cells",[19],0.073 µg/mL
same,"IC80, titer in TZM.bl cells",[19],0.376 µg/mL
same,"IC50, titer in TZM.bl cells",[21],0.001 µg/mL
same,"IC80, titer in TZM.bl cells",[21],0.013 µg/mL
same,"IC50, titer in TZM.bl cells",[22],0.018 µg/mL
same,"IC80, titer in TZM.bl cells",[22],0.065 µg/mL
same,"IC50, titer in TZM.bl cells",[23],> 50 µg/mL
same,"IC80, titer in TZM.bl cells",[23],> 50 µg/mL
same,IC50,[24],0.192 µg/mL
same,IC80,[24],0.87 µg/mL
same,IC50,[25],> 50 µg/mL
same,IC80,[25],> 50 µg/mL
same,IC50,[26],0.112 µg/mL
same,IC80,[26],1.23 µg/mL
same,IC50,[27],0.093 µg/mL
same,IC80,[27],0.248 µg/mL
same,IC50,[28],> 50 µg/mL
same,IC80,[28],> 50 µg/mL
same,IC50,[29],> 50 µg/mL
same,IC80,[29],> 50 µg/mL
same,IC50,[30],0.025 µg/mL
same,IC80,[30],0.68 µg/mL
same,IC50,[36],0.028 µg/mL
same,IC80,[36],0.345 µg/mL
same,"IC50, titer in TZM.bl cells",[37],> 50 µg/mL
same,"IC80, titer in TZM.bl cells",[37],> 50 µg/mL
same,IC50,[31],0.102 µg/mL
same,IC80,[31],0.71 µg/mL
same,"IC50, titer in TZM.bl cells",[32],> 50 µg/mL
same,"IC80, titer in TZM.bl cells",[32],> 50 µg/mL
same,IC50,[33],1.44 µg/mL
same,IC80,[33],> 50 µg/mL
